The target in the assay is HLA-B*57:01–T3N (human | not stated | HIV-1). Description: SPR.

This is an account of results in article PMC7900914.

Take “KIR3DL1*001 (similar construct, from insect cells) (from UniProt P43629 22-444) (receptor)”: the Kd came to 100 µM.
